Measured values published in publication PMC10085699.
Read-outs that look alike come from different tables or passages of the source.

Experiments:
SETX-HD-WT [1] = biological target: T1, SETX-HD-WT (Homo sapiens, UniProt Q7Z333 1674-2677); test: EMSA
T1 sequence: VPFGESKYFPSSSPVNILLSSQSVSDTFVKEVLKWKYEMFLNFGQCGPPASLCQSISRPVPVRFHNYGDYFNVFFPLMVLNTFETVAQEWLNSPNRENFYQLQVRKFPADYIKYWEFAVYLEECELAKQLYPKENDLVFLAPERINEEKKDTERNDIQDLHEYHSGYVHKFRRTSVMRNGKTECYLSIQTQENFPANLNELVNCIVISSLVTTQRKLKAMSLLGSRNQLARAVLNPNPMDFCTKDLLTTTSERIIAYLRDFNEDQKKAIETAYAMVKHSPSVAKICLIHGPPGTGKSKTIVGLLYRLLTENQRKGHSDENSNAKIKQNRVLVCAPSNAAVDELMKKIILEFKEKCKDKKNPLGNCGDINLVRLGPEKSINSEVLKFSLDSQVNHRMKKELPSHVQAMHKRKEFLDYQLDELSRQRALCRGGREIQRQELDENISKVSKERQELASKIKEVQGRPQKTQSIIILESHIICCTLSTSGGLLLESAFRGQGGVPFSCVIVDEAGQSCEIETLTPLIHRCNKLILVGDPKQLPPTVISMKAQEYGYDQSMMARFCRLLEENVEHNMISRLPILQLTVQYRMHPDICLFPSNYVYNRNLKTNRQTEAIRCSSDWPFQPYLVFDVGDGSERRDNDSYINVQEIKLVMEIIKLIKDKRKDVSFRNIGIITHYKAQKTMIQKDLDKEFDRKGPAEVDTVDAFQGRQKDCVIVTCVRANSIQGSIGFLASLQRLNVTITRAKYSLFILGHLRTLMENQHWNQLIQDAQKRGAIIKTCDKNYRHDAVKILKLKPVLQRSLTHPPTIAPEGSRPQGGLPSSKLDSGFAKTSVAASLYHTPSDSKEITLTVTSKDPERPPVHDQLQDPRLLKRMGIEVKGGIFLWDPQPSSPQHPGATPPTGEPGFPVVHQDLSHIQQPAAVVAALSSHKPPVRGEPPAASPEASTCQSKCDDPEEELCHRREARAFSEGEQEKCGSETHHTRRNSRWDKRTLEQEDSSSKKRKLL

SETX-HD-WT [2] = biological target: T1, SETX-HD-WT; test: EMSA; remark: listed apart in the source
SETX-HD-WT [3] = biological target: T1, SETX-HD-WT; test: EMSA; remark: listed apart in the source
SETX-HD-WT [4] = biological target: T1, SETX-HD-WT; test: EMSA; remark: listed apart in the source
SETX-HD-WT [5] = biological target: T1, SETX-HD-WT; test: BLI
Sen1-HD [6] = biological target: T2, Sen1-HD (UniProt Q00416 1095-1904); test: BLI
T2 sequence: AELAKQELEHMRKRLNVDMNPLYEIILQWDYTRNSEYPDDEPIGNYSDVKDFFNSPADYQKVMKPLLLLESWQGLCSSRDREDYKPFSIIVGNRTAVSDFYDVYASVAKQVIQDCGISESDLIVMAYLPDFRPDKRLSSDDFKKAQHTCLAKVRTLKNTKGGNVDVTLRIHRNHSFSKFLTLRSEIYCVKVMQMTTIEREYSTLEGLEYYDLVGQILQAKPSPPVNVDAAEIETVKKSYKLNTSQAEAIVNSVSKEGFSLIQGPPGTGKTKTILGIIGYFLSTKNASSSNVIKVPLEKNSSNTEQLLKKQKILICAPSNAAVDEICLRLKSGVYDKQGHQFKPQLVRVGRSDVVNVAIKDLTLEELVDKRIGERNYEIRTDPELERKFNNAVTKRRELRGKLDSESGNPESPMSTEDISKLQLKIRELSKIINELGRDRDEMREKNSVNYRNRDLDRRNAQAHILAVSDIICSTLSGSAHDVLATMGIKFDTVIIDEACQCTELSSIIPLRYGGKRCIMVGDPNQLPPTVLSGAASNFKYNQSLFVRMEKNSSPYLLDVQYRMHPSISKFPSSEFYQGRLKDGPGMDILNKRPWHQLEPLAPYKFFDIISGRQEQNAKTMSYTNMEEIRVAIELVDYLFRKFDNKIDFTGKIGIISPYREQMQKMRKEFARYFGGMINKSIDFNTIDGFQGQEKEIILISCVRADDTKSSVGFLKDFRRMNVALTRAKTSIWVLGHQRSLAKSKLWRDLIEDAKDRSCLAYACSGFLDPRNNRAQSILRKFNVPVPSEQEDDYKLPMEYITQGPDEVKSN

SETX-HD-V1884T = biological target: T3, SETX-HD-V1884T (Homo sapiens, UniProt Q7Z333 1674-2677, V1884T); test: BLI
T3 sequence: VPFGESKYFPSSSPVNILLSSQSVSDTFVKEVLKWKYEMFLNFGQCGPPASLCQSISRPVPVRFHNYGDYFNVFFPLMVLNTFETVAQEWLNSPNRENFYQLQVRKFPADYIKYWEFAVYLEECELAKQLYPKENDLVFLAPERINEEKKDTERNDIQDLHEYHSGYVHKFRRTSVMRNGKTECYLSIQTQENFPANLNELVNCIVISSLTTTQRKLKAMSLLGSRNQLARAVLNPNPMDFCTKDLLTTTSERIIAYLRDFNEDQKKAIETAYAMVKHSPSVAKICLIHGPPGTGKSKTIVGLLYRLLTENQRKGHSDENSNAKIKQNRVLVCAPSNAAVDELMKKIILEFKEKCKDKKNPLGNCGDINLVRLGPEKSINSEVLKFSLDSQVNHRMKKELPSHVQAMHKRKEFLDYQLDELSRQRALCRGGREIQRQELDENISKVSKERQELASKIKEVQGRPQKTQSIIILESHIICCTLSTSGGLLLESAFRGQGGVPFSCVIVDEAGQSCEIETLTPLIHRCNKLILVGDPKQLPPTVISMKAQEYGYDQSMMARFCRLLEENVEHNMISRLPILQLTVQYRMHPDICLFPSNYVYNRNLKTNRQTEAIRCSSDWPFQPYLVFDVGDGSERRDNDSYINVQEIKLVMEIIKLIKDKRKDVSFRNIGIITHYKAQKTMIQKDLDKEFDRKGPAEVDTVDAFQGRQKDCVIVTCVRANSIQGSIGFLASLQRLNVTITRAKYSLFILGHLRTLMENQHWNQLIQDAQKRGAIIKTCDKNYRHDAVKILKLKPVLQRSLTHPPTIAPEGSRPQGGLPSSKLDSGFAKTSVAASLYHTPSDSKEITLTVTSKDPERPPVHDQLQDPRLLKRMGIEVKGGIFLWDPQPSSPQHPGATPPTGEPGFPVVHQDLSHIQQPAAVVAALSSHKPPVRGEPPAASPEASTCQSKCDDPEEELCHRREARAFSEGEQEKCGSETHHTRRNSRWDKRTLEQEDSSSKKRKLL

SETX-HD-WT [7] = biological target: T1, SETX-HD-WT; test: BLI; remark: listed apart in the source
Sen1-HD [8] = biological target: T2, Sen1-HD; test: BLI; remark: listed apart in the source

B1: 5'-oh RNA:DNA hybrid (pRMS678/pRMS690) (DNA:RNA)
RNA: UUGUCUUCUCAUAAAUUUAAUCCCCGUACGCUUAUACUCCUUUAACUACCCAGUCUUCCCG
DNA: CGGGAAGACTGGGTAGTTAA
SETX-HD-WT [1]
  binding result: binds

B2: blunt RNA:DNA hybrid (pRMS678/pRMS743) (DNA:RNA)
RNA: UUGUCUUCUCAUAAAUUUAAUCCCCGUACGCUUAUACUCCUUUAACUACCCAGUCUUCCCG
DNA: CGGGAAGACTGGGTAGTTAAAGGAGTATAAGCGTACGGGGATTAAATTTATGAGAAGACAA
SETX-HD-WT [2]
  binding result: no binding

B3: 3'-oh RNA:DNA hybrid (pRMS678/pRMS689) (DNA:RNA)
RNA: UUGUCUUCUCAUAAAUUUAAUCCCCGUACGCUUAUACUCCUUUAACUACCCAGUCUUCCCG
DNA: TTAAATTTATGAGAAGACAA
SETX-HD-WT [3]
  binding result: binds

B4: 5'-oh R-loop (pRMS217/219/222) (mixed)
DNA 1: GACGCTGCCGAATTCTACCAGTGCCTTGCTAGGACATCTTTGCCCACCTGCAGGTTCACCC
DNA 2: GGGTGAACCTGCAGGTGGGCGGCTGCTCATCGTAGGTTAGTTGGTAGAATTCGGCAGCGTC
RNA: UAAGAGCAAGAUGUUCUAUAAAAGAUGUCCUAGCAAGGCAC
SETX-HD-WT [4]
  binding result: binds

B5: 3'-oh R-loop (pRMS217/219/626) (mixed)
DNA 1: GACGCTGCCGAATTCTACCAGTGCCTTGCTAGGACATCTTTGCCCACCTGCAGGTTCACCC
DNA 2: GGGTGAACCTGCAGGTGGGCGGCTGCTCATCGTAGGTTAGTTGGTAGAATTCGGCAGCGTC
RNA: AAAGAUGUCCUAGCAAGGCACUAAGUCCUAGAUGUUCUAUA
SETX-HD-WT [4]
  binding result: binds

B6: R-loop, no overhang (pRMS217/219/223) (mixed)
DNA 1: GACGCTGCCGAATTCTACCAGTGCCTTGCTAGGACATCTTTGCCCACCTGCAGGTTCACCC
DNA 2: GGGTGAACCTGCAGGTGGGCGGCTGCTCATCGTAGGTTAGTTGGTAGAATTCGGCAGCGTC
RNA: AAAGAUGUCCUAGCAAGGCAC
SETX-HD-WT [4]
  binding result: binds

B7: ssDNA pRMS739 (41 nt) (ssDNA)
DNA: TTGTCTTCTCATAAATTTAATCCCCGTACGCTTATACTCCT
SETX-HD-WT [5]
  Kd: 2.8 nM
Sen1-HD [6]
  Kd: 3.4 nM

B8: ssRNA pRMS740 (41 nt) (ssRNA)
RNA: UUGUCUUCUCAUAAAUUUAAUCCCCGUACGCUUAUACUCCU
SETX-HD-V1884T
  binding result: binds
SETX-HD-WT [7]
  Kd: 4.6 nM
Sen1-HD [8]
  Kd: 3.7 nM
